The target in assay [1] is T1, extracellular domain (ECD) of murine IGSF11, biotinylated (mouse, UniProt P0C673 23-240, biotinylated (site not stated)).
T1 construct: also called Mouse IGSF11; murine IGSF11 protein
T1 sequence: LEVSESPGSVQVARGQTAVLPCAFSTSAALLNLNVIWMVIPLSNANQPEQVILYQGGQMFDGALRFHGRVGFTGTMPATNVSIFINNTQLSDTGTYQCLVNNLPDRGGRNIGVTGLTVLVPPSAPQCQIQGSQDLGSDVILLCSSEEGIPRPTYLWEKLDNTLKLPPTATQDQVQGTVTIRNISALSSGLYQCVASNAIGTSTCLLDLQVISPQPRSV
Kind of assay: ELISA, scFv; RFU grade (*** >1.0, ** 0.5-1.0, * 0.1-0.5).

Assay [2] has as its target T2, extracellular domain (ECD) of human IGSF11 (VSIG3), biotinylated (human, UniProt Q5DX21 23-241, biotinylated (site not stated)).
T2 construct: also called human IGSF11 protein
T2 sequence: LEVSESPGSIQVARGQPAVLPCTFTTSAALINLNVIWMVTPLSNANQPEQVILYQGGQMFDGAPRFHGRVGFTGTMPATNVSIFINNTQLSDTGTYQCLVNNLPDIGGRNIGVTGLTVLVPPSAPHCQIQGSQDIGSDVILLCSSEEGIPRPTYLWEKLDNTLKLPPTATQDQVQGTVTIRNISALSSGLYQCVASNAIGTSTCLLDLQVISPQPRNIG
The description is as above.

B1: A-031 (scFv format) (scFv, V domains shown)
VH: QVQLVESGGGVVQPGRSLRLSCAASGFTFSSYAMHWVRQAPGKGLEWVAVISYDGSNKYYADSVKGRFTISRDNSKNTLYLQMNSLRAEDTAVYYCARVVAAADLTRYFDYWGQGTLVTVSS
VL: EIVLTQSPGTVSLSPGERATLSCRASQSVPKNYLAWFQQKPGQAPRLVIHTASSRAPGIPDRFTGSGSGTDFTLTISRLEPEDFAVYYCQQYGTSPNTFGQGTKLDIK
notes: scFv
Consider B1, for which the “relative fluorescent units (RFU), ELISA” value in assay [1] and in assay [2] was 0.1 to 0.5 rfu in each case.

B2: A-004 (scFv format) (scFv, V domains shown)
VH: EVQLVESGGGLVKPGGSLRLSCAASGFTFSSYSMNWVRQAPGKGLEWVSSISSSSSYIYYADSVKGRFTISRDNAKNSLYLQMNSLRAEDTAVYYCARGQLLWFGESALIDAFDIWGQGTMVTVSS
VL: EIVLTQSPSSLSASVGDRVTITCRASQSISSYLNWYQLKPGKAPKLLIYAASILQSGVPSRFSGSGSGTDFTLTISSLQPEDFAAYYCQQSYSTPRTFGQGTKLEIK
notes: scFv
With B2, the entries for the “relative fluorescent units (RFU), ELISA” value in assay [1] and in assay [2] were > 1 rfu and 0.5 to 1 rfu, respectively.

B3: A-032 (scFv format) (scFv, V domains shown)
VH: QVQLVQSGAEVKKPGASVKVSCKASGYTFTGYYMHWVRQAPGQGLEWMGWMNPNSGNTGYAQKFQGRVTMTRNTSISTAYMELSSLRSEDTAVYYCARGGQQQLVLDDYWGQGTLVTVSS
VL: not shown
Turning to B3, the “relative fluorescent units (RFU), ELISA” value in assay [1] and in assay [2] was 0.1 to 0.5 rfu in each case.

B4: A-030 (scFv format) (scFv, V domains shown)
VH: QVQLVQSGAEVKKPGASVKVSCKASGYTFTGYYMHWVRQAPGQGLEWMGWINPNSGNTGYAQKFQGRVTMTRNTSISTAYMELSSLRSEDTAVYYCARGGQQQLVLDDYWGQGTLVTVSS
VL: DIQLTQSPSTLSASVGDRVTITCRASQSIGGWLAWYQHKPGKAPKLLIYAASSLQSGVPSRFSGSGSGTDFTLTISSLQPEDFATYYCRQSYSTPPTFGQGTKVEIK
notes: scFv
With B4, the “relative fluorescent units (RFU), ELISA” value in assay [1] and in assay [2] was 0.1 to 0.5 rfu in each case.

B5: A-037 (scFv format) (scFv, V domains shown)
VH: QVQLVQSGAEVKKPGASVKVSCKASGYTFTGYYMHWVRQAPGQGLEWMGWINPNSGNTGYAQKFQGRVTMTRNTSISTAYMELSSLRSEDTAVYYCARGGQQQLVLDDYWGQGTLVTVSS
VL: NFMLTQPHSVSESPGKTVTISCTGSSGSIASNYVQWYQQRPGSAPTTVIYEDNQRPSGVPDRFSGSIDSSSNSASLTISGLKTEDEADYYCQSYDSSNQRVFGGGTKLTVL
notes: scFv
For the molecule B5, the “relative fluorescent units (RFU), ELISA” value in assay [1] and in assay [2] was 0.1 to 0.5 rfu throughout.

B6: A-036 (scFv format) (scFv, V domains shown)
VH: QVQLVQSGAEVKKPGASVKVSCKASGYTFTGYYMHWVRQAPGQGLEWMGWINPNSGGTNYAQKFQGRVTMTRNTSISTAYMELSSLRSEDTAVYYCARGGQQQLVLDDYWGQGTLVTVSS
VL: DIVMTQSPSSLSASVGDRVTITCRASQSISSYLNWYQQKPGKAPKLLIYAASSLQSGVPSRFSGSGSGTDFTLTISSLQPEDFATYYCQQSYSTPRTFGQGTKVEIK
notes: scFv
For B6, the “relative fluorescent units (RFU), ELISA” value in assay [1] and in assay [2] was 0.1 to 0.5 rfu throughout.

B7: A-034 (scFv format) (scFv, V domains shown)
VH: QMQLVQSGGGLVKPGGSLRLSCAASGFTFSSYTMNWVRQAPGKGLEWVSSISSIGTYIYYADSVKGRFTISRDNAKNSLYLQMNSLRAEDTAVYYCARVLLSGSYYGYFDSWGQGTLVTVSS
VL: QSVLTQPPSVSGAPGQRVTISCTGSSSNIGAGYDVHWYQQLPGTAPKLFIYGNSNRPSGVPDRFSGSKSGTSASLAITGLQAEDEADYYCQSYDSSLSGYVFGTGTKVTVL
notes: scFv
Regarding B7, the “relative fluorescent units (RFU), ELISA” value is 0.5 to 1 rfu in assay [1] and > 1 rfu in assay [2].

B8: A-001 (scFv format) (scFv, V domains shown)
VH: EVQLVESGGGLVKPGGSLRLSCAASGFTFSSYSMNWVRQAPGKGLEWVSSISSSSSYIYYADSVKGRFTISRDNAKNSLYLQMNSLRAEDTAVYYCVRSIIVQALGITSVFDIWGQGTMVTVSS
VL: AIRLTQSPSSLSASVGDRVTISCRASQIISNHLNWYQQKPGKAPKLLIYAASRLQTGVPSRFSGSGSETDYTLTISSLQPEDFATYYCQQSYSNPRTFGHGTKVEIK
notes: scFv
With B8, the “relative fluorescent units (RFU), ELISA” value in assay [1] and in assay [2] was > 1 rfu throughout.

B9: A-035 (scFv format) (scFv, V domains shown)
VH: QVQLVQSGAEVKKPGASVKVSCKASGYTFTGYYMHWVRQAPGQGLEWMGWINPNSGNTGYAQKFQGRVTMTRNTSISTAYMELSSLRSEDTAVYYCARGRLERGYWYFDLWGRGTLVTVSS
VL: NFMLTQPHSVSESPGRTVTISCTRSSGSITSNYVQWYQQRPGSAPTILIYEDKERPSEVPDRFSGSIDISSNSASLTISGLKTEDEADYYCQSYGGTSQGVLFGGGTKVTVL
notes: scFv
For the molecule B9, the “relative fluorescent units (RFU), ELISA” value in assay [1] is > 1 rfu; in assay [2] it was 0.5 to 1 rfu.

B10: A-033 (scFv format) (scFv, V domains shown)
VH: QVQLVQSGAEVKKPGASVKVSCKASGYTFTSYGISWVRQAPGQGLEWMGWISAYNGNTNYAQKLQGRVTMTTDTSTSTAYMELRSLRSDDTAVYYCARDHSIVGATTFDYWGQGTLVTVSS
VL: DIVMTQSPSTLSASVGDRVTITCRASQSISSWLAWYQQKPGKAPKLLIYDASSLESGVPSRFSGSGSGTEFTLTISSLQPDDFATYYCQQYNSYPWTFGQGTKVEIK
notes: scFv
On to B10, for which the “relative fluorescent units (RFU), ELISA” value in assay [1] and in assay [2] was 0.1 to 0.5 rfu each time.

B11: A-012 (scFv format) (scFv, V domains shown)
VH: EVQLLESGGGLIQPGGSLRLSCAVSGFTVSSNYMSWVRQAPGKGLEWVSVIYSGGSTYYADSVKGRFTISRDNSKNTLYLQMNSLRAEDTAVYYCARGNPYYYGDLQVNFDYWGQGTLVTVSS
VL: QAVVTQEPSLTVSPGGTVTLTCASSTGAVTSGYYPNWFQQKPGQAPRALIYSTSNKHSWTPARFSGSLLGGKAALTLSGVQPEDEAEYYCLLYYGGAWVFGGGTKLTVL
notes: scFv
Consider B11, for which the “relative fluorescent units (RFU), ELISA” value in assay [1] and in assay [2] was 0.5 to 1 rfu in each case.

B12: A-005 (scFv format) (scFv, V domains shown)
VH: EVQLVESGGGLIQPGGSLRLSCAASGFTVSSNYMSWVRQAPGKGLEWVSVIYSGGSTYYADSVKGRFTISRDNSKNTLYLQMNSLRAEDTAVYYCARGNPYYYGDLQVNFDYWGQGTLVTVSS
VL: QAVVTQEPSLTVSPGETVTLTCASSTGAVTSGYYPNWFQQRPGQAPRALIYSTSNKDSWTPARFSGSLLGGKAALTLSGVQPEDEAEYYCLLYYGGAWVFGGGTKLTVL
notes: scFv
With B12, the “relative fluorescent units (RFU), ELISA” value in assay [1] was 0.1 to 0.5 rfu; in assay [2], 0.5 to 1 rfu.

B13: A-002 (scFv format) (scFv, V domains shown)
VH: EVQLVESGGGLIQPGGSLRLSCAASGFTVSSNYMSWVRQAPGKGLEWVSVIYSGGSTYYADSVKGRFTISRDNSKNTLYLQMNSLRAEDTAVYYCARGNPYYYGDLQVNFDYWGQGTLVTVSS
VL: QAVVTQEPSLTVSPGGTVTPTCGSSTGAVTSGNLPNWFQQKPGQAPRALIYSTSNKHSWTPARISGSLLGGKAALTLSGVQPEDEAEYYCLLYYGGAWVFGGGTKLTVL
notes: scFv
For B13, the entries for the “relative fluorescent units (RFU), ELISA” value in assay [1] and in assay [2] were 0.1 to 0.5 rfu and 0.5 to 1 rfu, respectively.

B14: A-006 (scFv format) (scFv, V domains shown)
VH: EVQLVESGGGLIQPGGSLRLSCAASGFTVSSNYMSWVRQAPGKGLEWVSVIYSGGSTYYADSVKGRFTISRDNSKNTLYLQMNSLRAEDTAVYYCARGNPYYYGDLQVNFDYWGQGTLVTVSS
VL: QAVVTQEPSLTVSPGGTVTLTCASSTGAVTSGYYPNWFQQKPGQAPRPLIYSTSNKHSWTPARFSGSLLGGKAALTLSGVQPDDEAEYYCLLYYGGDWVFGGGTKLTVL
notes: scFv
Take B14: the “relative fluorescent units (RFU), ELISA” value in assay [1] and in assay [2] was 0.5 to 1 rfu in each case.

For the origin of these results see US20210061908A1 (IOMX THERAPEUTICS, published 2021).
